Patent US20260098059A1 (ENDOMET BIOSCIENCES, published 2026)
Values joined by “and” are separate entries in the source; they are usually repeats but may differ in a detail not shown here. Equal values may be shown once. Bridges are numbered along the chain shown (N, C = ends). Where no end group is shown, it is not given here. [ ]: non-standard residue; d: D form. The star is where a group is joined. NMeW = CN[C@@H](Cc1c[nH]c2ccccc12)C(=O)O; Chg = N[C@H](C(=O)O)C1CCCCC1; Lauroyl = CCCCCCCCCCCC(=O)*; αMeS = C[C@](N)(CO)C(=O)O; NMeA = CN[C@@H](C)C(=O)O

T1: β-catenin (UniProt P35222 134-665, limits assumed, biotinylated in the SPR and plate assays)
T1 construct: also called beta catenin; biotinylated β-catenin
T1 sequence (looked up): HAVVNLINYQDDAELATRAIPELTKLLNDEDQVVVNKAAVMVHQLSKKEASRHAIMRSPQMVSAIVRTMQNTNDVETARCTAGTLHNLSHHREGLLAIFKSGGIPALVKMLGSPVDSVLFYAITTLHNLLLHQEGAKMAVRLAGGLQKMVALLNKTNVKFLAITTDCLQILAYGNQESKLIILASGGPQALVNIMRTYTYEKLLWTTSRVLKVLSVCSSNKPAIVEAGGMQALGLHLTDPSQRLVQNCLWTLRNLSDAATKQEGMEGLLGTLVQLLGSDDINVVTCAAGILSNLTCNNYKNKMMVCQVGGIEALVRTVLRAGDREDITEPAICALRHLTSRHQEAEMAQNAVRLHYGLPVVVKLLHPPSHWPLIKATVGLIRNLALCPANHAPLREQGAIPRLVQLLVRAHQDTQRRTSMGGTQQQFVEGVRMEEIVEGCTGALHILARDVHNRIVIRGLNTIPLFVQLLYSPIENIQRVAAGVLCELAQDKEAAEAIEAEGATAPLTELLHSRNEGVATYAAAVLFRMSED


Columns and labels:
[1] = target: T1, β-catenin; experiment: competitive FP
Summary of the method: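 Competitive fluorescence polarization with inhibitor peptide serially diluted from 10 nM to 30 uM; polarization read at 470 nm excitation, 520 nm emission. Experiments performed three times.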

[2] = target: T1, β-catenin; experiment: cell-based or functional assay

Row | Binder | Kd [1] | Wnt Reporter EC50 [2]
1 | W[NMeA]QSILDEHVQKVWG-NH2 (lactam 8-12; not fully specified (N-terminus); printed as H23C11C(O)NH-W-NmeA-QSILDE*HVQK*VWG-NH2) [SEQ ID NO: 439] | ≤ 0.4 µM | > 7.5 µM and ≤ 15 µM
2 | WPQSILDEHGQKVWG (not fully specified; Ac-NH-WPQSILDE*H-Chg-QK*VWG-NH2) [SEQ ID NO: 472] | ≤ 0.4 µM | > 7.5 µM and ≤ 15 µM
3 | WPQSILDEHGQKVWG (not fully specified; Lauroyl-NH-WPQSILDE*H-Chg-QK*VWG-NH2) [SEQ ID NO: 473] | ≤ 0.4 µM | ≤ 7.5 µM
4 | QKILDEHGQRVWG (HELM PEPTIDE1{[ac].Q.K.I.L.D.E.H.[O=C([C@@H](N[*:1])C1CCCCC1)[*:2]].Q.R.V.W.G.[am]}$PEPTIDE1,PEPTIDE1,3:R3-7:R3$$$V2.0; SMILES CC[C@H](C)[C@@H]1NC(=O)[C@@H](NC(=O)[C@H](CCC(N)=O)NC(C)=O)CCCCNC(=O)CC[C@@H](C(=O)N[C@@H](Cc2c[nH]cn2)C(=O)N[C@H](C(=O)N[C@@H](CCC(N)=O)C(=O)N[C@@H](CCCNC(=N)N)C(=O)N[C@H](C(=O)N[C@@H](Cc2c[nH]c3ccccc23)C(=O)NCC(N)=O)C(C)C)C2CCCCC2)NC(=O)[C@H](CC(=O)O)NC(=O)[C@H](CC(C)C)NC1=O) [SEQ ID NO: 440] | ≤ 0.4 µM | > 22.5 µM and ≤ 30 µM
5 | H-W[NMeW]E[αMeS]ILDEHVQRVWG-NH2 [SEQ ID NO: 40] | ≤ 0.4 µM | > 30 µM
6 | WAQKILDEHGQRVWG (HELM PEPTIDE1{[ac].W.A.Q.K.I.L.D.E.H.[O=C([C@@H](N[*:1])C1CCCCC1)[*:2]].Q.R.V.W.G.[am]}$PEPTIDE1,PEPTIDE1,5:R3-9:R3$$$V2.0; SMILES CC[C@H](C)[C@@H]1NC(=O)[C@@H](NC(=O)[C@H](CCC(N)=O)NC(=O)[C@H](C)NC(=O)[C@H](Cc2c[nH]c3ccccc23)NC(C)=O)CCCCNC(=O)CC[C@@H](C(=O)N[C@@H](Cc2c[nH]cn2)C(=O)N[C@H](C(=O)N[C@@H](CCC(N)=O)C(=O)N[C@@H](CCCNC(=N)N)C(=O)N[C@H](C(=O)N[C@@H](Cc2c[nH]c3ccccc23)C(=O)NCC(N)=O)C(C)C)C2CCCCC2)NC(=O)[C@H](CC(=O)O)NC(=O)[C@H](CC(C)C)NC1=O) [SEQ ID NO: 441] | ≤ 0.4 µM | > 30 µM
7 | WXQKILDEHGQRVWG (HELM PEPTIDE1{[ac].W.[O=C([C@@H]1CCCCN1[*:1])[*:2]].Q.K.I.L.D.E.H.[O=C([C@@H](N[*:1])C1CCCCC1)[*:2]].Q.R.V.W.G.[am]}$PEPTIDE1,PEPTIDE1,5:R3-9:R3$$$V2.0; SMILES CC[C@H](C)[C@@H]1NC(=O)[C@@H](NC(=O)[C@H](CCC(N)=O)NC(=O)[C@@H]2CCCCN2C(=O)[C@H](Cc2c[nH]c3ccccc23)NC(C)=O)CCCCNC(=O)CC[C@@H](C(=O)N[C@@H](Cc2c[nH]cn2)C(=O)N[C@H](C(=O)N[C@@H](CCC(N)=O)C(=O)N[C@@H](CCCNC(=N)N)C(=O)N[C@H](C(=O)N[C@@H](Cc2c[nH]c3ccccc23)C(=O)NCC(N)=O)C(C)C)C2CCCCC2)NC(=O)[C@H](CC(=O)O)NC(=O)[C@H](CC(C)C)NC1=O) [SEQ ID NO: 442] | ≤ 0.4 µM | ≤ 7.5 µM
8 | WXQKILDEHGQRVWG (HELM PEPTIDE1{[ac].W.[Aib].Q.K.I.L.D.E.H.[O=C([C@@H](N[*:1])C1CCCCC1)[*:2]].Q.R.V.W.G.[am]}$PEPTIDE1,PEPTIDE1,5:R3-9:R3$$$V2.0; SMILES CC[C@H](C)[C@@H]1NC(=O)[C@@H](NC(=O)[C@H](CCC(N)=O)NC(=O)C(C)(C)NC(=O)[C@H](Cc2c[nH]c3ccccc23)NC(C)=O)CCCCNC(=O)CC[C@@H](C(=O)N[C@@H](Cc2c[nH]cn2)C(=O)N[C@H](C(=O)N[C@@H](CCC(N)=O)C(=O)N[C@@H](CCCNC(=N)N)C(=O)N[C@H](C(=O)N[C@@H](Cc2c[nH]c3ccccc23)C(=O)NCC(N)=O)C(C)C)C2CCCCC2)NC(=O)[C@H](CC(=O)O)NC(=O)[C@H](CC(C)C)NC1=O) [SEQ ID NO: 443] | ≤ 0.4 µM | > 7.5 µM and ≤ 15 µM
9 | EDPQKILDEHLQRVLK (not fully specified; H23C11C(O)NH-EDPQK*ILDE*HLQRVLK-NH2) [SEQ ID NO: 444] | ≤ 0.4 µM | > 30 µM
10 | AQKILDEHGQRVW (HELM PEPTIDE1{[ac].[meA].Q.K.I.L.D.E.H.[O=C([C@@H](N[*:1])C1CCCCC1)[*:2]].Q.R.V.W.[am]}$PEPTIDE1,PEPTIDE1,4:R3-8:R3$$$V2.0; SMILES CC[C@H](C)[C@@H]1NC(=O)[C@@H](NC(=O)[C@H](CCC(N)=O)NC(=O)[C@H](C)N(C)C(C)=O)CCCCNC(=O)CC[C@@H](C(=O)N[C@@H](Cc2c[nH]cn2)C(=O)N[C@H](C(=O)N[C@@H](CCC(N)=O)C(=O)N[C@@H](CCCNC(=N)N)C(=O)N[C@H](C(=O)N[C@@H](Cc2c[nH]c3ccccc23)C(N)=O)C(C)C)C2CCCCC2)NC(=O)[C@H](CC(=O)O)NC(=O)[C@H](CC(C)C)NC1=O) [SEQ ID NO: 445] | ≤ 0.4 µM | > 22.5 µM and ≤ 30 µM
11 | WAQKILDEHGQRVW (HELM PEPTIDE1{[CCCCCCCCCCCC(=O)[*:2]].W.[meA].Q.K.I.L.D.E.H.[O=C([C@@H](N[*:1])C1CCCCC1)[*:2]].Q.R.V.W.[am]}$PEPTIDE1,PEPTIDE1,5:R3-9:R3$$$V2.0; SMILES CCCCCCCCCCCC(=O)N[C@@H](Cc1c[nH]c2ccccc12)C(=O)N(C)[C@@H](C)C(=O)N[C@@H](CCC(N)=O)C(=O)N[C@H]1CCCCNC(=O)CC[C@@H](C(=O)N[C@@H](Cc2c[nH]cn2)C(=O)N[C@H](C(=O)N[C@@H](CCC(N)=O)C(=O)N[C@@H](CCCNC(=N)N)C(=O)N[C@H](C(=O)N[C@@H](Cc2c[nH]c3ccccc23)C(N)=O)C(C)C)C2CCCCC2)NC(=O)[C@H](CC(=O)O)NC(=O)[C@H](CC(C)C)NC(=O)[C@H]([C@@H](C)CC)NC1=O) [SEQ ID NO: 447] | ≤ 0.4 µM | ≤ 7.5 µM
12 | AQKILDEHGQRVWR (HELM PEPTIDE1{[ac].[meA].Q.K.I.L.D.E.H.[O=C([C@@H](N[*:1])C1CCCCC1)[*:2]].Q.R.V.W.R.[am]}$PEPTIDE1,PEPTIDE1,4:R3-8:R3$$$V2.0; SMILES CC[C@H](C)[C@@H]1NC(=O)[C@@H](NC(=O)[C@H](CCC(N)=O)NC(=O)[C@H](C)N(C)C(C)=O)CCCCNC(=O)CC[C@@H](C(=O)N[C@@H](Cc2c[nH]cn2)C(=O)N[C@H](C(=O)N[C@@H](CCC(N)=O)C(=O)N[C@@H](CCCNC(=N)N)C(=O)N[C@H](C(=O)N[C@@H](Cc2c[nH]c3ccccc23)C(=O)N[C@@H](CCCNC(=N)N)C(N)=O)C(C)C)C2CCCCC2)NC(=O)[C@H](CC(=O)O)NC(=O)[C@H](CC(C)C)NC1=O) [SEQ ID NO: 448] | ≤ 0.4 µM | > 30 µM
13 | H-MSRMWYLISFWG-OH [SEQ ID NO: 66] | > 10 µM and ≤ 30 µM | > 7.5 µM and ≤ 15 µM
14 | H-MSRMWFLISFRG-OH [SEQ ID NO: 69] | ≤ 0.4 µM | > 30 µM
15 | WAQKILNDHGQAV (HELM PEPTIDE1{[ac].W.[meA].Q.K.I.L.N.D.H.[O=C([C@@H](N[*:1])C1CCCCC1)[*:2]].Q.A.V.[am]}$PEPTIDE1,PEPTIDE1,5:R3-9:R3$$$V2.0; SMILES CC[C@H](C)[C@@H]1NC(=O)[C@@H](NC(=O)[C@H](CCC(N)=O)NC(=O)[C@H](C)N(C)C(=O)[C@H](Cc2c[nH]c3ccccc23)NC(C)=O)CCCCNC(=O)C[C@@H](C(=O)N[C@@H](Cc2c[nH]cn2)C(=O)N[C@H](C(=O)N[C@@H](CCC(N)=O)C(=O)N[C@@H](C)C(=O)N[C@H](C(N)=O)C(C)C)C2CCCCC2)NC(=O)[C@H](CC(N)=O)NC(=O)[C@H](CC(C)C)NC1=O) [SEQ ID NO: 452] | > 0.4 µM and ≤ 1 µM | > 15 µM and ≤ 22.5 µM
16 | Lauroyl-W[NMeA]QKILNDH[Chg]QAVW-NH2 (lactam 4-8) [SEQ ID NO: 459] | ≤ 0.4 µM | ≤ 7.5 µM
17 | Lauroyl-W[NMeA]QSILDKH[Chg]QDVW-NH2 (lactam 8-12; not fully specified; printed as Lauroyl-NH-W-NMeA-QSILDK*H-Chg-QD*VW-NH2) [SEQ ID NO: 461] | ≤ 0.4 µM | ≤ 7.5 µM
18 | WPQSILDKHGQDVW (not fully specified; Lauroyl-NH-WPQSILDK*H-Chg-QD*VW-NH2) [SEQ ID NO: 463] | ≤ 0.4 µM | ≤ 7.5 µM
19 | Lauroyl-W[NMeA]QKILDEH[Chg]EDVWK-NH2 (lactam 11-15, 4-8 (inferred)) [SEQ ID NO: 465] | > 0.4 µM and ≤ 1 µM | ≤ 7.5 µM
